Source: publication PMC6294257, “Osteocalcin triggers Fas/FasL-mediated necroptosis in adipocytes via activation of p300” (Cell Death & Disease, 2018)

Target: the molecule itself
Assay: non-reducing SDS-PAGE and immunoblot; 3T3-L1 adipocytes incubated with GluOC for 24 h; cell lysates prepared in the absence of 2-mercaptoethanol; immunoblot with antibodies to MLKL

B1: mixed-lineage kinase domain-like protein (MLKL) (natural protein, mouse (endogenous in 3T3-L1), UniProt Q9D2Y4 1-472, looked up)
chain: MDKLGQIIKLGQLIYEQCEKMKYCRKQCQRLGNRVHGLLQPLQRLQAQGKKNLPDDITAALGRFDEVLKEANQQIEKFSKKSHIWKFVSVGNDKILFHEVNEKLRDVWEELLLLLQVYHWNTVSDVSQPASWQQEDRQDAEEDGNENMKVILMQLQISVEEINKTLKQCSLKPTQEIPQDLQIKEIPKEHLGPPWTKLKTSKMSTIYRGEYHRSPVTIKVFNNPQAESVGIVRFTFNDEIKTMKKFDSPNILRIFGICIDQTVKPPEFSIVMEYCELGTLRELLDREKDLTMSVRSLLVLRAARGLYRLHHSETLHRNISSSSFLVAGGYQVKLAGFELSKTQNSISRTAKSTKAERSSSTIYVSPERLKNPFCLYDIKAEIYSFGIVLWEIATGKIPFEGCDSKKIRELVAEDKKQEPVGQDCPELLREIINECRAHEPSQRPSVDGRSLSGRERILERLSAVEESTDKKV
notes: mixed-lineage kinase domain-like protein (MLKL), endogenous in 3T3-L1 adipocytes treated with GluOC; High-dose GluOC induces phosphorylation of MLKL, printed as Thr357/Ser358; these numbers may be those of human MLKL although the cells are mouse; source: endogenous, 3T3-L1 adipocyte lysate
- stoichiometry N: 3
